A short description of data set [1]: Rehydration time of lyophilized polymer gels. In kind it is physicochemical. The following applies: xanthan gum, carrageenan. As to the method:
Lyophilized gels were prepared by slowing adding the polymer to water with stirring. For gels with methylcellulose or hydroxypropylcellulose, the polymer was added to hot water and the product was cooled with stirring. The gels took between 1-3 hours to reach maximum viscosity. All gels were allowed to stand for at least 12 hours before any additional processing. If PTH(1-34) was included in the formulation, the peptide was added to an aliquot of gel and gently stirred for 10 minutes.
Prior to lyophilization, gels were filled into Type I glass vials and frozen. Freezing was performed on a freezer shelf (−20° C.) or in a dry ice/ethanol bath (˜−48° C.). The lyophilizer (Ultra-dry Labtop, Freezedry Specialties, Inc) was equipped with a condenser (−50° C.) and an ultra high vacuum pump (DUO 2.5, Pfeiffer Vacuum, Inc) to provide optimal conditions for sublimating the frozen water. No heating or cooling was applied to the lyophilizer shelf. Vials containing lyophilized gels with PTH(1-34) were purged with nitrogen before stoppering (Teflon coated butyl rubber) and sealing (aluminum crimp seal).
A panel of lyophilized polymer gel was screened for the capacity to reform gels following rehydration. […]

The nature of data set [2]: Excipient compatibility screening with sodium thiosulfate (appearance). The following applies: added to the gel formulation. In kind it is physicochemical. As for the experimental part:
During preformulation studies, sodium thiosulfate and methionine were identified as effective antioxidants for PTH(1-34). […] Sodium thiosulfate was assayed in the gel formulations listed in Table 21 in the absence of PTH(1-34) in order to identify which excipients were incompatible with sodium thiosulfate. Gel formulations were prepared according to the method described in Example 8. LDPE dropper bottles (5 mL) were purchased from IntraPac Group and over wrap foil (FR-2175) was obtained from Covalence Coated Products. The appearance of all samples was noted initially and after one week of storage at 20° C. protected from light.

As to “PTH(1-34): parathyroid hormone fragment 1-34, supplied by Neo-MPS”, the “compatibility with anionic polymers” value in data set [1] is recorded as “not compatible with anionic polymers”.

Turning to `O=S([O-])([O-])=S.[Na+].[Na+]` [sodium thiosulfate], the “compatibility with the gel formulation” value in data set [2] is “a yellowish precipitate formed”.

The record behind these values is patent publication US20080299228A1, “TOPICAL COMPOSITIONS COMPRISING A MACROMOLECULE AND METHODS OF USING SAME” (priority 2007, published 2008).
